PMC2998434, “Domain Swapping in Allosteric Modulation of DNA Specificity” (PLoS Biology, 2010)
Where a chain is given by its changes, count along the chain named.

Columns and labels:
[1] = molecular target: the molecule itself; test: crystal structure; SgrAI with self-complementary 17-mer cognate DNA (1:2 SgrAI dimer:DNA duplex) and Ca2+; 14% PEG 4K, 0.1 M imidazole pH 6.5, 0.15 M NaCl, 0.05 M CaCl2, 17°C; two DNA bound dimers form a domain swapped tetramer (N counts subunits)
SgrAI wild type = molecular target: T1, SgrAI wild type (UniProt Q9F6L0 1-339); test: X-ray crystal structure, 2.03 A; 50 mM CaCl2; two Ca2+ per active site; domain-swapped tetramer with two duplexes; FPA: 20 mM Tris-OAc pH 8.0, 50 mM KOAc, 10 mM Ca(OAc)2, 1 mM DTT, 10% glycerol, 4 C, 1 nM DNA; native PAGE: same binding buffer, 1 uM SgrAI, 30 min at 4 C, gel; conditions: protein: recombinant; chain copies: 2; 5' overhang 1 nt (A) at each end; self-complementary, 2 strand copies
T1 sequence: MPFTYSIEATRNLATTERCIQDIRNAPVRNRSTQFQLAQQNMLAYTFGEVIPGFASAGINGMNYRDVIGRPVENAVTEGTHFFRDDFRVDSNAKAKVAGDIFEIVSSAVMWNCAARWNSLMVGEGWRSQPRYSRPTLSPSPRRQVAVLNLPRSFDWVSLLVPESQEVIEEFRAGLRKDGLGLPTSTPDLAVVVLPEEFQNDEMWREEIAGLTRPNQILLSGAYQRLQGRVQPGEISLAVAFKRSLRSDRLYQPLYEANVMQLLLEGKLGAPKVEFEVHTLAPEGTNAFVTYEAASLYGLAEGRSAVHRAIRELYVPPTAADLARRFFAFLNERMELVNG

SgrAI P27G = molecular target: T2, SgrAI P27G (UniProt Q9F6L0 1-339, P27G); test: fluorescence polarization anisotropy; 10 mM Ca2+; FPA: 20 mM Tris-OAc pH 8.0, 50 mM KOAc, 10 mM Ca(OAc)2, 1 mM DTT, 10% glycerol, 4 C, 1 nM DNA; native PAGE: same binding buffer, 1 uM SgrAI, 30 min at 4 C, gel; conditions: protein: recombinant, chain copies: 2
T2 sequence: T1 sequence with P27G

SgrAI P27W = molecular target: T3, SgrAI P27W (UniProt Q9F6L0 1-339, P27W); test: as above; conditions: protein: recombinant, chain copies: 2
T3 sequence: T1 sequence with P27W

[2] = label: 5' HEX on both strands (FPA), 5' 32P (native gel), blunt, self-complementary, 2 strand copies
[3] = label: 5' FLO on top strand only

B1: SgrAI restriction endonuclease, wild type (enzyme, Streptomyces griseus)
chain: PFTYSIEATRNLATTERCIQDIRNAPVRNRSTQFQLAQQNMLAYTFGEVIPGFASAGINGMNYRDVIGRPVENAVTEGTHFFRDDFRVDSNAKAKVAGDIFEIVSSAVMWNCAARWNSLMVGEGWRSQPRYSRPTLSPSPRRQVAVLNLPRSFDWVSLLVPESQEVIEEFRAGLRKDGLGLPTSTPDLAVVVLPEEFQNDEMWREEIAGLTRPNQILLSGAYQRLQGRVQPGEISLAVAFKRSLRSDRLYQPLYEANVMQLLLEGKLGAPKVEFEVHTLAPEGTNAFVTYEAASLYGLAEGRSAVHRAIRELYVPPTAADLARRFFAFLNERMELVNG
notes: the structure legends name residues 1-24 (swapping domain), 25-30 (hinge loop) and 31-339; residues 1-339 are named for the structure; also called WT SgrAI; wild type SgrAI dimer
**Q.** B1 was tested. Which “stoichiometry N” value [1] did it give?
**A.** 4

B2: 17-2 cognate (crystal DNA) (dsDNA)
DNA 1: AAGTCCACCGGTGGACT
DNA 2: AAGTCCACCGGTGGACT
**Q.** Does B2 bind (SgrAI wild type)?
**A.** binds

B3: 18-1 (primary site) (dsDNA)
DNA 1: AAGTCCACCGGTGGACTT
DNA 2: AAGTCCACCGGTGGACTT
**Q.** Which results are given for B3?
**A.** Kd (SgrAI P27G; [2]): 17 ± 5 nM; Kd (SgrAI P27W; [2]): 4 ± 0.8 nM

B4: PCP (precleaved primary site DNA) (dsDNA)
DNA 1: GATGCGTGGGTCTTCACA
DNA 2: CCGGTGTGAAGACCCACGCATC
modifications: 5' phosphate at the cleavage site
**Q.** Which Kd (SgrAI P27G; [3]) does the source give for B4 here?
**A.** 5 ± 2 nM

**Q.** And the Kd (SgrAI P27W; [3])?
**A.** 9 ± 2 nM
